Here are results for one molecule from article PMC9700037 (2022).

The target in this assay is T1, biotin-MBP-NLRP1 M1184V (Avi-MBP-tev-NLRP1 M1184V) (human, UniProt Q9C000 1-1473, M1184V, biotin (on the Avi tag, BirA co-expressed)).
T1 sequence: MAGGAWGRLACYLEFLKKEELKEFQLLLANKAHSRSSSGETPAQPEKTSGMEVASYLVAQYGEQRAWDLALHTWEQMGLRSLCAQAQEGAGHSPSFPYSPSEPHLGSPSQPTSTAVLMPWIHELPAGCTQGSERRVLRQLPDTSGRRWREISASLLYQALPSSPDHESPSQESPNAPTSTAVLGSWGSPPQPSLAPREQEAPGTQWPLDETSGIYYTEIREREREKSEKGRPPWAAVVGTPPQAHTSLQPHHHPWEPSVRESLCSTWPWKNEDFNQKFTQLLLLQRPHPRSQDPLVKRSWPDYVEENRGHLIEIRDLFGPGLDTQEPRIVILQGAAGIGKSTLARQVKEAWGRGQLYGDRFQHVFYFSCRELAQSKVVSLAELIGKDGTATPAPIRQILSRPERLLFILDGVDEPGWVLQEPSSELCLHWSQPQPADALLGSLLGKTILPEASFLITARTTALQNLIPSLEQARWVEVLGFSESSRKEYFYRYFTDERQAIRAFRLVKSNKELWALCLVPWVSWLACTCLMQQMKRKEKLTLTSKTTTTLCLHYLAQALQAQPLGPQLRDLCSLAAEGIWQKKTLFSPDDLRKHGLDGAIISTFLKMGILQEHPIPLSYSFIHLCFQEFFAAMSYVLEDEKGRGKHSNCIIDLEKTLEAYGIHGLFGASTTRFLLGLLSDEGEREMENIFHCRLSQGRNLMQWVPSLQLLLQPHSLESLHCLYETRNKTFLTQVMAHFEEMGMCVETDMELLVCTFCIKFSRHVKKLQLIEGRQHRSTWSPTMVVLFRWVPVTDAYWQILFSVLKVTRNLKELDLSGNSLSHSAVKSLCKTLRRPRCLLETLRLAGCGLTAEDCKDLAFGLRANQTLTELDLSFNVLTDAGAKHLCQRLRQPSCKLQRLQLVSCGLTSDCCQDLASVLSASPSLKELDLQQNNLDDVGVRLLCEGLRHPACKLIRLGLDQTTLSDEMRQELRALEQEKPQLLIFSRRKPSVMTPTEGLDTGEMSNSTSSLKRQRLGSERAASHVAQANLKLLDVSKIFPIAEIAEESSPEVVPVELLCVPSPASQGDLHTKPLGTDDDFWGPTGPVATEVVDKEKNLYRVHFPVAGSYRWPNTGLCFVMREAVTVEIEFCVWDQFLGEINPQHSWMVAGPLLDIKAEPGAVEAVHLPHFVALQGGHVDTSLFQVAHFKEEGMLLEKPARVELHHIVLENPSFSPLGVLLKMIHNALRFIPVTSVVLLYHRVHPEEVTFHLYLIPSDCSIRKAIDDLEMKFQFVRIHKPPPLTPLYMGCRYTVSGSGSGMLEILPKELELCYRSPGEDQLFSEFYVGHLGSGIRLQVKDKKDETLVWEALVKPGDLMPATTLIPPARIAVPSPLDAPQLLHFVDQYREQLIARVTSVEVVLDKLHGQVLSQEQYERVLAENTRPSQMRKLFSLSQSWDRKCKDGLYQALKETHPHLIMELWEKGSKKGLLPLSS
As to the kind of experiment: SPR; NLRP1 void (high MW) fraction. For orientation: Surface plasmon resonance follows binding to a sensor surface in real time, without labels.

B1: His6-tev-DPP9 (enzyme)
chain: MATTGTPTADRGDAAATDDPAARFQVQKHSWDGLRSIIHGSRKYSGLIVNKAPHDFQFVQKTDESGPHSHRLYYLGMPYGSRENSLLYSEIPKKVRKEALLLLSWKQMLDHFQATPHHGVYSREEELLRERKRLGVFGITSYDFHSESGLFLFQASNSLFHCRDGGKNGFMVSPMKPLEIKTQCSGPRMDPKICPADPAFFSFINNSDLWVANIETGEERRLTFCHQGLSNVLDDPKSAGVATFVIQEEFDRFTGYWWCPTASWEGSEGLKTLRILYEEVDESEVEVIHVPSPALEERKTDSYRYPRTGSKNPKIALKLAEFQTDSQGKIVSTQEKELVQPFSSLFPKVEYIARAGWTRDGKYAWAMFLDRPQQWLQLVLLPPALFIPSTENEEQRLASARAVPRNVQPYVVYEEVTNVWINVHDIFYPFPQSEGEDELCFLRANECKTGFCHLYKVTAVLKSQGYDWSEPFSPGEDEFKCPIKEEIALTSGEWEVLARHGSKIWVNEETKLVYFQGTKDTPLEHHLYVVSYEAAGEIVRLTTPGFSHSCSMSQNFDMFVSHYSSVSTPPCVHVYKLSGPDDDPLHKQPRFWASMMEAASCPPDYVPPEIFHFHTRSDVRLYGMIYKPHALQPGKKHPTVLFVYGGPQVQLVNNSFKGIKYLRLNTLASLGYAVVVIDGRGSCQRGLRFEGALKNQMGQVEIEDQVEGLQFVAEKYGFIDLSRVAIHGWSYGGFLSLMGLIHKPQVFKVAIAGAPVTVWMAYDTGYTERYMDVPENNQHGYEAGSVALHVEKLPNEPNRLLILHGFLDENVHFFHTNFLVSQLIRAGKPYQLQIYPNERHSIRCPESGEHYEVTLLHFLQEYL
For the molecule B1, the Kd was 113 nM.

One may read the Kd as the concentration at which binding is half-saturated. A higher Kd goes with a looser complex.
